# Laboratory results reported in patent US20090208447A1.
# B1: soluble high affinity c50 ILT-like polypeptide dimer, Q8NHL6 25-217 (receptor)
# chain: MHLPKPTLWAEPGSVITMDQPVTLRCQGGQETQEYRLYREKKTAPWITRIPQELVKKGQFPIPSITWEHAGRYRCYYGSDTSQWSASSDPLELVVTGVYIKPTLSAQPSPVVNSGGNVTLQCDSQVAFDGFILCKEGEDEHPQCLNSQPHARGSSRAIFSVGPVSPSRRWWYRCYAYDSNSPYEWSLPSDLLELDVDGC
# modifications: here or on the partner: additional C-terminal cysteine linked through maleimide to MAL-PEG-MAL, MW 3.4 KD
# B2: soluble high affinity c50 ILT-like polypeptide tetramer, Q8NHL6 25-217 (receptor)
# chain: B1 chain
# modifications: here or on the partner: additional C-terminal cysteine linked through maleimide to 4arm MAL-PEG, MW 20 KD
# B3: soluble high affinity c50 ILT-like polypeptide monomer, Q8NHL6 25-221 (receptor)
# chain: MHLPKPTLWAEPGSVITMDQPVTLRCQGGQETQEYRLYREKKTAPWITRIPQELVKKGQFPIPSITWEHAGRYRCYYGSDTSQWSASSDPLELVVTGVYIKPTLSAQPSPVVNSGGNVTLQCDSQVAFDGFILCKEGEDEHPQCLNSQPHARGSSRAIFSVGPVSPSRRWWYRCYAYDSNSPYEWSLPSDLLELDVDG
# Molecular target: Class I MHC
# Experiment: cell-based or functional assay
row,"IC50 for the inhibition of CTLs (IFN-gamma ELISPOT, MART-1 specific T cell clone KA/C5 with Mel 624 / Mel 526 target cells) [nM]",Binder
1,16.2,B1
2,0.7,B2
3,800,B3
